Assay results: paper PMC2901266

Experiments:
[1] = biological target: ToLCKeV MBP-AC3 fusion protein (Tomato leaf curl Kerala virus-[India:Kerala II:2005]); assay: sucrose gradient ultracentrifugation + SEC; 10-40% (w/v) sucrose step gradient, 25 mM Tris (pH 8.0), 250 mM NaCl, 2 mM sodium bisulphite, 0.05% Triton X-100, 35,000 rpm 20 h 4°C, against mass markers; gel filtration on Superdex 200 5/150
[2] = biological target: ToLCKeV MBP-AC1 fusion protein (replication initiator protein, Rep) (Tomato leaf curl Kerala virus-[India:Kerala II:2005])

## ToLCKeV MBP-AC3 fusion protein (natural protein)
[1]
  stoichiometry N: 12 to 14 mer
[2]
  ATPase activity of AC1 (Rep), release of Pi from [gamma-32P]ATP, with varying MBP-AC3 (increase at 0.02-0.2 pM, reduced at higher AC3: bell shaped curve); increase over Rep alone set as 100%: 80%
